Results from US5989875A, “Method of process for producing L-lysine by fermentation” (priority 1995, dated 1999).

Legend:
[1] = tested on: AKIII; test: Enzyme activity of AKIII and inhibition by L-lysine (cell-free extract); assay type: biochemical, E. coli
Source text: No. 24, No. 43, No. 48, No. 60, No. 80, No. 117, No. 126, No. 149, No. 150, No. 156, No. 158, No. 167, No. 169 and No. 172 were selected as representative strains of the aforementioned 14 groups. Mutant plasmids derived from pLYSC1 were recovered from each of them, and designated as pLYSC1*24, pLYSC1*43, pLYSC1*48, pLYSC1*60, pLYSC1*80, pLYSC1*117, pLYSC1*126, pLYSC1*149, pLYSC1*150, pLYSC1*156, pLYSC1*158, pLYSC1*167, pLYSC1*169 and pLYSC1*172, respectively. An AK completely deficient strain GT3 was transformed with them and the wild type pLYSC1. A cell-free extract was prepared from each of transformed strains, and the enzyme activity of AKIII was measured.
The cell-free extract (crude enzyme solution) was prepared as follows. A transformed strain was cultivated in a 2 x TY medium, and collected at an OD660 of about 0.8. Cells were washed with 0.02 M KH2 PO4 (pH 6.75)-0.03 M β-mercaptoethanol under a condition of 0° C., and the cells were disrupted by sonication (0° C., 100 W, 30 minutes×4). A disrupted cell solution was centrifuged at 33 krpm for 1 hour under a condition of 0° C. to obtain a supernatant to which ammonium sulfate was added to give 80% saturation. After centrifugation, a pellet was dissolved in 0.02 M KH2 PO4 (pH 6.75)-0.03 M β-mercaptoethanol, and stored at 0° C. overnight.
The enzyme activity of AKIII was measured in accordance with a method of Stadtman et al. (Stadtman, E. R., Cohen, G. N., LeBras, G., and Robichon-Szulmajster, H., J. Biol. Chem., 236, 2033 (1961)). Namely, a reaction solution having the following composition was incubated at 27° C. for 45 minutes, and an FeCl3 solution (2.8 N HCl 0.4 ml+12% TCA 0.4 ml+5% FeCl3 ·6H2 O/0.1 N HCl 0.7 ml) was added thereto to develop a color, and it was centrifuged followed by measurement of absorbance of a supernatant at 540 nm. The activity was indicated by an amount of hydroxamic acid generated per minute (1 U=1 μmol/min). The molar absorption coefficient was 600. Potassium aspartate was removed from the reaction solution to be used as a blank.
In measurement of the enzyme activity of AK, various concentrations of L-lysine were added to the enzyme reaction solution and the degree of inhibition by L-lysine was examined.
(§1) On the contrary, although the mutant AKIII's obtained this time had various degrees of desensitization, inhibition by L-lysine was desensitized in all of 14 species. […] The specific activity based on total protein, which might be affected by growth situations of cell and preparation of samples, was equal to or more than that of the wild type in almost all cases, and there was little problem of decrease in activity due to the introduction of mutation (Table 3). According to this fact, it was expected that an active center of AKIII was independent from a regulatory site by L-lysine with each other. In Table 3, the inhibition desensitization degree (%) refers to an AK activity in the presence of 100 mM of L-lysine compared with an AK activity in the absence of L-lysine in the reaction solution. The heat stability (%) refers to a ratio of activity maintenance after a treatment at 55° C. for 1.5 hour.

[2] = tested on: AKIII; test: Heat stability of AKIII in vitro; assay type: biochemical, E. coli; details: ratio of activity maintenance after treatment at 55° C. for 1.5 hour
Source text: as §1
Subsequently, the heat stability of the mutant enzymes was examined. When it is intended that an enzyme is improved to increase its activity, it is important that a created enzyme is maintained stably in cells. […]
Judging from results of investigation on the inactivation temperature of AKIII under various conditions, the ratio of activity maintenance after a treatment at 55° C. for 90 minutes was measured. […]

B1: Wild type: wild type aspartokinase III of E. coli encoded by lysC, SEQ ID NO:8 (protein)
chain: MSEIVVSKFGGTSVADFDAMNRSADIVLSDANVRLVVLSASAGITNLLVALAEGLEPGERFEKLDAIRNIQFAILERLRYPNVIREEIERLLENITVLAEAAALATSPALTDELVSHGELMSTLLFVEILRERDVQAQWFDVRKVMRTNDRFGRAEPDIAALAELAALQLLPRLNEGLVITQGFIGSENKGRTTTLGRGGSDYTAALLAEALHASRVDIWTDVPGIYTTDPRVVSAAKRIDEIAFAEAAEMATFGAKVLHPATLLPAVRSDIPVFVGSSKDPRAGGTLVCNKTENPPLFRALALRRNQTLLTLHSLNMLHSRGFLAEVFGILARHNISVDLITTSEVSVALTLDTTGSTSTGDTLLTQSLLMELSALCRVEVEEGLALVALIGNDLSKACGVGKEVFGVLEPFNIRMICYGASSHNLCFLVPGEDAEQVVQKLHSNLFE
Degree of desensitization of inhibition ([1]; AK activity in the presence of 100 mM of L-lysine compared with AK activity in the absence of L-lysine): 0% | Specific activity ([1]; AKIII, cell-free extract of GT3 transformants, 1 U=1 μmol/min): 0.0247 U/mg protein | Inhibition of AKIII by L-lysine ([1]; various concentrations of L-lysine, FIG. 6): strongly suffered inhibition by L-lysine | Heat stability [2]: 18%
